For 15 molecules, IC50 results are on record in US20160272683A1 (Novo Nordisk, published 2016).

For experiment [1], the target named is rat amylin receptor (rat calcitonin receptor with rat RAMP 3) (rat) (UniProt P32214). Put plainly: SPA competition vs 125I-rat amylin, membranes with rat CTR + rat RAMP3 (Assay VI).
Experiment [2] has as its target T1, human calcitonin receptor (human, UniProt P30988 25-474).
T1 construct: whole, on cells; Assay VII: membranes on SPA beads; also called hCT-R; hCTR
T1 sequence (looked up): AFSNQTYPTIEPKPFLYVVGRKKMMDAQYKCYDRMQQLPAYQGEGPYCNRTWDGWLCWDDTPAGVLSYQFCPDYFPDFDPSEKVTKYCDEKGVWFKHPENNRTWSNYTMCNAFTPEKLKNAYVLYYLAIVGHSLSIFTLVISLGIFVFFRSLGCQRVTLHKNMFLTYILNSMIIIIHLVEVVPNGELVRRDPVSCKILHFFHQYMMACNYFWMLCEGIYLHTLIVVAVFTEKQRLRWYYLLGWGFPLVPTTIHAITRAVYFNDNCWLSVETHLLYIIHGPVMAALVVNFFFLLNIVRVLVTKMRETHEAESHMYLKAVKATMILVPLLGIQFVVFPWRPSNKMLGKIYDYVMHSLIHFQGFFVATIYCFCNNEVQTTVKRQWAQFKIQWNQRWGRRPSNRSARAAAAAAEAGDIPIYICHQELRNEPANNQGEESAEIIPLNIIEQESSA
Put plainly: SPA competition vs 125I-calcitonin, membranes with human CTR (Assay VII). A digest of the protocol: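 SPA competition on membranes from BHK tk'ts 13 cells stably expressing human calcitonin receptor plus CRE-luciferase reporter; membranes 35 ng/μL final with 0.05 mg/well beads.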

For experiment [3], the target named is T2, human amylin receptor (amylin 3(a) receptor: human calcitonin receptor with RAMP-3) (human, UniProt P30988 25-474; O60896 24-148, limits assumed).
T2 construct: whole, on cells; Assay V: membranes of the Amylin 3(a)/CRE-luc BHK cells on SPA beads; also called hAmylin-R
T2 sequence (looked up) 1: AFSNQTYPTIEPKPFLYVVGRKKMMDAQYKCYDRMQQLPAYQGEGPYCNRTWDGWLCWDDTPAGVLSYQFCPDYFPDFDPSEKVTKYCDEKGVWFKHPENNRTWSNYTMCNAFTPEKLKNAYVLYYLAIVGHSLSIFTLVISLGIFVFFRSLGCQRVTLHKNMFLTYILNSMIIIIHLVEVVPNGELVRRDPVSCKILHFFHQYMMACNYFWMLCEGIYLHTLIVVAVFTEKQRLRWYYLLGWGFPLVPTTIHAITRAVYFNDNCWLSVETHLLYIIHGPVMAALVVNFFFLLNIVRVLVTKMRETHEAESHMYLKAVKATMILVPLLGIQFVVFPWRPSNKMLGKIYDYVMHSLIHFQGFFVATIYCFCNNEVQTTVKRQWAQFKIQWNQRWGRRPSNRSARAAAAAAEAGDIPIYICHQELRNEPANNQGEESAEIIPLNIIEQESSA
T2 sequence (looked up) 2: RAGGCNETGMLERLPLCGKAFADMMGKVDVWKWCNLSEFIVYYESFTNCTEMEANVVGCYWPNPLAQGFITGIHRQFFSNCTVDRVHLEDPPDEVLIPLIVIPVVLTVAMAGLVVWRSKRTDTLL
Put plainly: SPA competition vs 125I-rat amylin, membranes with human CTR + RAMP-3 (Assay V).

Experiment [4] addresses rat calcitonin receptor (rat) (UniProt P32214). As to the kind of experiment: SPA competition vs 125I-calcitonin, membranes with rat CTR (Assay VIII).

Numbered stars: 1 amine (or outer) side, 2 acyl side, 3 side chain; on linkers, the order of the positions; unused ones are H or OH. Side chains are listed from the residue outwards. Ends that are not written are not given here. * marks the point of attachment. C20 diacid = O=C(O)CCCCCCCCCCCCCCCCCCC(=O)*; C18 diacid = O=C(O)CCCCCCCCCCCCCCCCC(=O)*; C16 diacid = O=C(O)CCCCCCCCCCCCCCC(=O)*; γGlu = O=C(O)[C@H](CCC(=O)[*:2])N[*:1]; C14 diacid = O=C(O)CCCCCCCCCCCCC(=O)*; AEEA = NCCOCCOCC(=O)O

In the case of “[N-terminal(C20 diacid-gGlu-2xOEG), des1, 4G, 9V, 15Q, 21Q, 23Y, 30S, 31G, 32T, 33Y]mimylin (peptide)”, in experiment [1], the IC50 (commonly the point on the concentration scale where inhibition reaches its midpoint) is 0.029 nM.

B1: [N-terminal(C20 diacid-gGlu), 1A, 23Y, 30S, 31G]mimylin (peptide)
peptide: {C20 diacid-γGlu}-AASELSTAALGRLSAELHELATYPRTETGSGSP-NH2
SMILES: CC(C)C[C@H](NC(=O)[C@H](C)NC(=O)[C@H](C)NC(=O)[C@@H](NC(=O)[C@H](CO)NC(=O)[C@H](CC(C)C)NC(=O)[C@H](CCC(=O)O)NC(=O)[C@H](CO)NC(=O)[C@H](C)NC(=O)[C@H](C)NC(=O)CC[C@H](NC(=O)CCCCCCCCCCCCCCCCCCC(=O)O)C(=O)O)[C@@H](C)O)C(=O)NCC(=O)N[C@@H](CCCNC(=N)N)C(=O)N[C@@H](CC(C)C)C(=O)N[C@@H](CO)C(=O)N[C@@H](C)C(=O)N[C@@H](CCC(=O)O)C(=O)N[C@@H](CC(C)C)C(=O)N[C@@H](Cc1c[nH]cn1)C(=O)N[C@@H](CCC(=O)O)C(=O)N[C@@H](CC(C)C)C(=O)N[C@@H](C)C(=O)N[C@H](C(=O)N[C@@H](Cc1ccc(O)cc1)C(=O)N1CCC[C@H]1C(=O)N[C@@H](CCCNC(=N)N)C(=O)N[C@H](C(=O)N[C@@H](CCC(=O)O)C(=O)N[C@H](C(=O)NCC(=O)N[C@@H](CO)C(=O)NCC(=O)N[C@@H](CO)C(=O)N1CCC[C@H]1C(N)=O)[C@@H](C)O)[C@@H](C)O)[C@@H](C)O
notes: mimylin derivative; also called Ex. #57; 57
For B1, the IC50 in experiment [2] stood at 0.108 nM; in experiment [3] it was 0.124 nM.

B2: [N-terminal(C18 diacid-gGlu-2xOEG), des1, 4G, 9V, 15Q, 21Q, 23Y, 30S, 31G, 32T, 33Y]mimylin (peptide)
peptide: {C18 diacid-γGlu-AEEA-AEEA}-ASGLSTAVLGRLSQELHELQTYPRTETGSGTY-NH2
SMILES: CC(C)C[C@H](NC(=O)CNC(=O)[C@H](CO)NC(=O)[C@H](C)NC(=O)COCCOCCNC(=O)COCCOCCNC(=O)CC[C@H](NC(=O)CCCCCCCCCCCCCCCCC(=O)O)C(=O)O)C(=O)N[C@@H](CO)C(=O)N[C@H](C(=O)N[C@@H](C)C(=O)N[C@H](C(=O)N[C@@H](CC(C)C)C(=O)NCC(=O)N[C@@H](CCCNC(=N)N)C(=O)N[C@@H](CC(C)C)C(=O)N[C@@H](CO)C(=O)N[C@@H](CCC(N)=O)C(=O)N[C@@H](CCC(=O)O)C(=O)N[C@@H](CC(C)C)C(=O)N[C@@H](Cc1c[nH]cn1)C(=O)N[C@@H](CCC(=O)O)C(=O)N[C@@H](CC(C)C)C(=O)N[C@@H](CCC(N)=O)C(=O)N[C@H](C(=O)N[C@@H](Cc1ccc(O)cc1)C(=O)N1CCC[C@H]1C(=O)N[C@@H](CCCNC(=N)N)C(=O)N[C@H](C(=O)N[C@@H](CCC(=O)O)C(=O)N[C@H](C(=O)NCC(=O)N[C@@H](CO)C(=O)NCC(=O)N[C@H](C(=O)N[C@@H](Cc1ccc(O)cc1)C(N)=O)[C@@H](C)O)[C@@H](C)O)[C@@H](C)O)[C@@H](C)O)C(C)C)[C@@H](C)O
notes: mimylin derivative; des1 = residue 1 deleted; also called Ex. #121; 121
Take B2: the IC50 in experiment [2] worked out at 0.12 nM; in experiment [3], 0.371 nM.

B3: [N-terminal(C16 diacid), des1, 30S, 31G]mimylin (peptide)
peptide: {C16 diacid}-ASELSTAALGRLSAELHELATLPRTETGSGSP-NH2
notes: mimylin derivative; des1 = residue 1 deleted; also called Ex. #49; 49
As to B3, the IC50 in experiment [2] was 0.011 nM; in experiment [3] it was 0.015 nM.

B4: [N-terminal(C18 diacid-gGlu), des1, 30S, 31G]mimylin (peptide)
peptide: {C18 diacid-γGlu}-ASELSTAALGRLSAELHELATLPRTETGSGSP-NH2
notes: mimylin derivative; des1 = residue 1 deleted; also called Ex. #46; 46
For the molecule B4, the IC50 in experiment [2] amounted to 0.084 nM; in experiment [3], 0.516 nM.

B5: [N-terminal(C18 diacid), des1, 30S, 31G]mimylin (peptide)
peptide: {C18 diacid}-ASELSTAALGRLSAELHELATLPRTETGSGSP-NH2
notes: mimylin derivative; des1 = residue 1 deleted; also called Ex. #48; 48
On to B5, for which the IC50 is 0.034 nM in experiment [2] and 0.077 nM in experiment [3].

B6: [N-terminal(C20 diacid-gGlu), des1, 4Q, 9V, 15Q, 16R, 19R, 21Q, 23Y, 27Q, 30S, 31Q, 32T, 33Y]mimylin (peptide)
peptide: {C20 diacid-γGlu}-ASQLSTAVLGRLSQRLHRLQTYPRTQTGSQTY-NH2
SMILES: CC(C)C[C@H](NC(=O)[C@H](CCCNC(=N)N)NC(=O)CNC(=O)[C@H](CC(C)C)NC(=O)[C@@H](NC(=O)[C@H](C)NC(=O)[C@@H](NC(=O)[C@H](CO)NC(=O)[C@H](CC(C)C)NC(=O)[C@H](CCC(N)=O)NC(=O)[C@H](CO)NC(=O)[C@H](C)NC(=O)CC[C@H](NC(=O)CCCCCCCCCCCCCCCCCCC(=O)O)C(=O)O)[C@@H](C)O)C(C)C)C(=O)N[C@@H](CO)C(=O)N[C@@H](CCC(N)=O)C(=O)N[C@@H](CCCNC(=N)N)C(=O)N[C@@H](CC(C)C)C(=O)N[C@@H](Cc1c[nH]cn1)C(=O)N[C@@H](CCCNC(=N)N)C(=O)N[C@@H](CC(C)C)C(=O)N[C@@H](CCC(N)=O)C(=O)N[C@H](C(=O)N[C@@H](Cc1ccc(O)cc1)C(=O)N1CCC[C@H]1C(=O)N[C@@H](CCCNC(=N)N)C(=O)N[C@H](C(=O)N[C@@H](CCC(N)=O)C(=O)N[C@H](C(=O)NCC(=O)N[C@@H](CO)C(=O)N[C@@H](CCC(N)=O)C(=O)N[C@H](C(=O)N[C@@H](Cc1ccc(O)cc1)C(N)=O)[C@@H](C)O)[C@@H](C)O)[C@@H](C)O)[C@@H](C)O
notes: mimylin derivative; des1 = residue 1 deleted; also called Ex. #132; 132
As to B6, the half-maximal inhibitory concentration (IC50) is 0.131 nM in experiment [2] and 0.39 nM in experiment [3].

B7: [des1, 4K(C20 diacid-gGlu), 30S, 31G]mimylin (peptide)
peptide: ASK([γGlu-C20 diacid])LSTAALGRLSAELHELATLPRTETGSGSP-NH2
modifications: N-terminus assumed
SMILES: CC(C)C[C@H](NC(=O)[C@H](C)NC(=O)[C@H](C)NC(=O)[C@@H](NC(=O)[C@H](CO)NC(=O)[C@H](CC(C)C)NC(=O)[C@H](CCCCNC(=O)CC[C@H](NC(=O)CCCCCCCCCCCCCCCCCCC(=O)O)C(=O)O)NC(=O)[C@H](CO)NC(=O)[C@H](C)N)[C@@H](C)O)C(=O)NCC(=O)N[C@@H](CCCNC(=N)N)C(=O)N[C@@H](CC(C)C)C(=O)N[C@@H](CO)C(=O)N[C@@H](C)C(=O)N[C@@H](CCC(=O)O)C(=O)N[C@@H](CC(C)C)C(=O)N[C@@H](Cc1c[nH]cn1)C(=O)N[C@@H](CCC(=O)O)C(=O)N[C@@H](CC(C)C)C(=O)N[C@@H](C)C(=O)N[C@H](C(=O)N[C@@H](CC(C)C)C(=O)N1CCC[C@H]1C(=O)N[C@@H](CCCNC(=N)N)C(=O)N[C@H](C(=O)N[C@@H](CCC(=O)O)C(=O)N[C@H](C(=O)NCC(=O)N[C@@H](CO)C(=O)NCC(=O)N[C@@H](CO)C(=O)N1CCC[C@H]1C(N)=O)[C@@H](C)O)[C@@H](C)O)[C@@H](C)O
B7: the IC50 in experiment [4] is 0.114 nM.

As for {C14 diacid}-ASELSTAALGRLSAELHELATLPRTETGSGSP-NH2, in experiment [4], the concentration for half-maximal inhibition (IC50) came out at 0.123 nM.

B8: [N-terminal(C20 diacid-gGlu-5xOEG), des1, 30S, 31G]mimylin (peptide)
peptide: {C20 diacid-γGlu-AEEA-AEEA-AEEA-AEEA-AEEA}-ASELSTAALGRLSAELHELATLPRTETGSGSP-NH2
notes: mimylin derivative; des1 = residue 1 deleted; also called Ex. #45; 45
Regarding B8, the IC50 was found to be 0.112 nM in experiment [2] and 0.389 nM in experiment [3].

B9: [N-terminal(C20 diacid-gGlu-3xOEG), des1, 30S, 31G]mimylin (peptide)
peptide: {C20 diacid-γGlu-AEEA-AEEA-AEEA}-ASELSTAALGRLSAELHELATLPRTETGSGSP-NH2
notes: mimylin derivative; des1 = residue 1 deleted; also called Ex. #43; 43
B9: the IC50 in experiment [2] is 0.05 nM; in experiment [3], 0.164 nM.

B10: [N-terminal(C14 diacid), des1, 30S, 31G]mimylin (peptide)
peptide: {C14 diacid}-ASELSTAALGRLSAELHELATLPRTETGSGSP-NH2
notes: mimylin derivative; des1 = residue 1 deleted; also called Ex. #51; 51
In the case of B10, the figures for the IC50 in experiment [2] and in experiment [3] were 0.14 nM and 0.773 nM, respectively.

B11: [N-terminal(C14 diacid-gGlu), des1, 30S, 31G]mimylin (peptide)
peptide: {C14 diacid-γGlu}-ASELSTAALGRLSAELHELATLPRTETGSGSP-NH2
notes: mimylin derivative; des1 = residue 1 deleted; also called Ex. #50; 50
In the case of B11, the IC50 in experiment [2] was found to be 0.023 nM; in experiment [3], 0.054 nM.

B12: [N-terminal(C20 diacid-gGlu-2xOEG), des1, 30S, 31G]mimylin (peptide)
peptide: {C20 diacid-γGlu-AEEA-AEEA}-ASELSTAALGRLSAELHELATLPRTETGSGSP-NH2
notes: mimylin derivative; des1 = residue 1 deleted; also called Ex. #42; 42
On to B12, for which the results for the IC50 in experiment [2] and in experiment [3] were 0.05 nM and 0.159 nM, respectively.

B13: [N-terminal(C16 diacid-gGlu), des1, 30S, 31G]mimylin (peptide)
peptide: {C16 diacid-γGlu}-ASELSTAALGRLSAELHELATLPRTETGSGSP-NH2
notes: mimylin derivative; des1 = residue 1 deleted; also called Ex. #47; 47
B13: the values for the IC50 in experiment [2] and in experiment [3] were 0.024 nM and 0.037 nM, respectively.
